For 29 sequences, protein stability index results are on record in the supplement of paper PMC10567573.

This series is described as follows: protein stability index of a GFP-peptide fusion (GPS, HEK-293T) (PSI 1-6); higher = more stable. Particulars: c terminus: a fixed tail appended.

± gives the standard deviation.
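Also: 24-mer peptide tiles fused after GFP, lentivirally expressed, FACS-sorted into six equal bins by GFP/DsRed ratio, decoded by Illumina sequencing, PSI is the read-weighted mean bin number.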

Take NTNSDPLDPSFPVEFVRHGDIIRL [POMT2]: the protein stability index is 2.69 ± 0.38 (treatment: DMSO) and 2.86 ± 0.28 (treatment: MLN4924 1 uM, 8 h).
For LELGSTEVLLDHLKAHAEEKPPSG [PLAGL1], in that order: 4.46 ± 0.28 and 4.94 ± 0.2.
As for QSGRDLQQYQSQAKQLFRKLNEQS [SEC22B], the protein stability index is, setting by setting: (treatment: DMSO) 3.72 ± 0.29; (treatment: MLN4924 1 uM, 8 h) 3.83 ± 0.27.
For RQLDPSNCLGIRAFADTHSCRELL [KLHL20], in that order: 3.07 ± 0.32 and 3.23 ± 0.3.
For ETCSCGYYLHPLPAGAEYCSSARH [SCNN1D], the protein stability index reads like this: (treatment: DMSO) 3.52 ± 0.36; (treatment: MLN4924 1 uM, 8 h) 3.63 ± 0.43.
For NDTKKMYAMKYMNKQKCVERNEVR [STK32A], in that order: 3.71 ± 0.2 and 3.97 ± 0.33.
As for SEAAIGGAMLGQTTSEEAVGGATP [HDAC6], the protein stability index runs as follows: (treatment: DMSO) 5.31 ± 0.26; (treatment: MLN4924 1 uM, 8 h) 5.4 ± 0.17.
For SPNFGFMGQLLQYESEILPSTPNP [DUSP5], in that order: 3.59 ± 0.092 and 3.45 ± 0.48.
Turning to DRERQPLLDRARGAAAQGQTQTVA [PI4K2A], the protein stability index turned out to be 5.22 ± 0.18 (treatment: DMSO) and 5.13 ± 0.28 (treatment: MLN4924 1 uM, 8 h).
Turning to YEHHYHTLHGNVCSFCKRAFPSGH [ZNF511], the protein stability index is, setting by setting: (treatment: DMSO) 2.73 ± 0.37; (treatment: MLN4924 1 uM, 8 h) 3.19 ± 0.54.
In the case of KLREFLRVEEQAILDAMAEETRQK [TRIM35], the protein stability index (treatment: DMSO) stood at 2.85 ± 0.53 and the protein stability index (treatment: MLN4924 1 uM, 8 h) came to 3.34 ± 0.18.
Consider TRRSCIDESQISAEEAEDHGRIPD [FAM189A2], for which the protein stability index is, setting by setting: (treatment: DMSO) 5.5 ± 0.33; (treatment: MLN4924 1 uM, 8 h) 5.49 ± 0.15.
For FIALLILFILSTLVVDYIDEGRLV [SOAT1], in that order: 3.18 ± 0.3 and 3.26 ± 0.5.
With GPVGTDFKPLNSTPATTTEPPKPT [ZNF207], the protein stability index turned out to be 5.24 ± 0.21 (treatment: DMSO) and 5.19 ± 0.23 (treatment: MLN4924 1 uM, 8 h).
For VVDRIQSSGKNVTLLVCGKKAYDY [PDZK1], in that order: 2.42 ± 0.5 and 2.54 ± 0.31.
Turning to WMQANYDPLSDSDSMTSQAKPEAL [ELOA2], the protein stability index was found to be 4.72 ± 0.12 (treatment: DMSO) and 4.54 ± 0.26 (treatment: MLN4924 1 uM, 8 h).
The like results for AANKAVKCAEVIIPLLSSVNVSDR [ANKRD44] were, in that order, 2.9 ± 0.27 and 2.98 ± 0.23.
Turning to SLSPSPLGSSAASTALERPSFLSQ [FCHO1], the protein stability index runs as follows: (treatment: DMSO) 4.09 ± 0.25; (treatment: MLN4924 1 uM, 8 h) 3.98 ± 0.19.
For LLPKGSKEEQRDYVFYLAVGNYRL [FIS1], in that order: 2.63 ± 0.56 and 2.15 ± 0.063.
With PKQLYFSARQGELQKVLLMLVDGI [EHMT1], the protein stability index worked out at 2.66 ± 0.48 (treatment: DMSO) and 2.35 ± 0.58 (treatment: MLN4924 1 uM, 8 h).
As to DGAISAHKPLLICSCEWMAAMFGG [RHOBTB1], the protein stability index is, setting by setting: (treatment: DMSO) 2.25 ± 0.29; (treatment: MLN4924 1 uM, 8 h) 2.3 ± 0.15.
For FQFLSWPDYGVPSSAASLIDFLRV [PTPN9], in that order: 2.7 ± 0.36 and 2.53 ± 0.41.
The sequence PKDIYSSFGFPRTVKHIDAALSEE [MMP1] returned a protein stability index (treatment: DMSO) of 3.9 ± 0.29 and a protein stability index (treatment: MLN4924 1 uM, 8 h) of 4.04 ± 0.23.
Sequence RDFAETHNCVDLMQAAEVFSQKHF [KLHL12] came in with a protein stability index (treatment: DMSO) of 3.31 ± 0.23 and a protein stability index (treatment: MLN4924 1 uM, 8 h) of 3.21 ± 0.49.
PMVARYIRINPQSWFDNGSICMRM [CPXM2] yielded a protein stability index (treatment: DMSO) of 2.82 ± 1.1 and a protein stability index (treatment: MLN4924 1 uM, 8 h) of 1.95 ± 0.38.
The like results for AMELRHQGGEYLPKPEPPQLVLAY [FEM1A] were, in that order, 2.32 ± 0.33 and 2.38 ± 0.28.
The like results for FDRVDENNPEYLRERNMAPDLRQD [ADD1] were, in that order, 5.1 ± 0.064 and 5.32 ± 0.25.
The like results for TVNVQRTGQPLPQSIQQAMRYLRN [DLC1] were, in that order, 3.17 ± 0.18 and 3.33 ± 0.23.
In the case of LFLSHVLALGLGIYIGKRLSTPSA [BNIP3L], the protein stability index reads like this: (treatment: DMSO) 2.86 ± 0.86; (treatment: MLN4924 1 uM, 8 h) 2.94 ± 0.55.
